Measurements as given in IntAct's records for PubMed 19737519.

Columns and labels:
nle1_yeast RSA4 [1] = biological target: nle1_yeast RSA4 (UniProt P25382)
nle1_yeast RSA4 [2] = biological target: nle1_yeast RSA4 (UniProt P25382); remark: listed apart in the source

Sequence of UniProt P25382 (P25382 whole entry): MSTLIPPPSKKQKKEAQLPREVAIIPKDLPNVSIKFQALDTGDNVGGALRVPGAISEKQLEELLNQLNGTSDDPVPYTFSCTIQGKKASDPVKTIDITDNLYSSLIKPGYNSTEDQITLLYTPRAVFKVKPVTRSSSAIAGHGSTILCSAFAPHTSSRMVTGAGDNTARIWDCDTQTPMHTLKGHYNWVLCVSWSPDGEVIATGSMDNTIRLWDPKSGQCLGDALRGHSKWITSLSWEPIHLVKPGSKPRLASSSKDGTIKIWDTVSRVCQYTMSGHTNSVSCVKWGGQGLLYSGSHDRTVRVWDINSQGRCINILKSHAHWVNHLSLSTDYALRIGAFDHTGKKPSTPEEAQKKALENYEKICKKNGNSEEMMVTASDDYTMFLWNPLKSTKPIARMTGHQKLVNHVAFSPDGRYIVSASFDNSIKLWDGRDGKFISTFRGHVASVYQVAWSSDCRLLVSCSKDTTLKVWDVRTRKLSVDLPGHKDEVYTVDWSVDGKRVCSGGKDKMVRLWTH

Row | effect of a mutation on the interaction (nle1_yeast RSA4 [1]) | effect of a mutation on the interaction (nle1_yeast RSA4 [2]) | Substance
1 | decreasing interaction | – | Midasin (Saccharomyces cerevisiae), Q12019 S4712T
2 | disrupting interaction | decreasing interaction | Midasin (Saccharomyces cerevisiae), Q12019 S4712A;S4714A
